Measured values from article PMC7418854 (Journal for Immunotherapy of Cancer, 2020).
Substitutions are numbered along the chain they refer to. Names may count otherwise.

B1: humanized anti-LILRB1 antibody Hu B1-176-N297A (antibody, V domains shown)
VH: EVQLVESGGGLVQPGGSLRLSCAASGFSFSSSYCMCWVRQAPGKGLELVSCIYTDSSGATYYASWAKGRFTISRHNSKNTLYLQMNSLRAEDTAVYYCARGWDYEDPGYTDTTYFSLWGRGTLVTVSS
VL: DIQLTQSPSFLSASVGDRVTITCQASQTIYTNLAWYQQKPGKAPKLLIYAASTLASGVPSRFSGSGSGTEFTLTISSLQPEDFATYYCQSYYGSSTTGNGFGGGTKVEIK
B2: humanized B1-176 with heavy chain Hu-176 VH-1 and light chain Hu-176 VL (antibody, V domains shown)
VH: B1 VH with L48W
VL: B1 VL
B3: humanized anti-LILRB1 antibody Hu B1-176-LALAPG (antibody, V domains shown)
VH: B1 VH
VL: B1 VL
B4: humanized B1-176 with heavy chain Hu-176 VH-2 (W48L), as tested in Figure 3B (antibody, V domains shown)
VH: B1 VH
VL: B1 VL
B5: rabbit anti-LILRB1 monoclonal antibody B1-176 (antibody, V domains shown)
VH: QSLEESEGGLVKPGGTLTLTCTASGFSFSSSYCMCWVRQAPGKGLELIACIYTDSSGATYYASWAKGRFTISKSSSTTITLQMTSLTAADTATYFCARGWDYEDPGYTDTTYFSLWGPGTLVTVSS
VL: ELDLTQTPSSVEAAVGGTVTIKCQASQTIYTNLAWYQQKPGQPPNLLIYAASTLASGVSSRFKGSGSGTEFTLTISDLECADAATYYCQSYYGSSTTGNGFGGGTEVEIK

Legend:
recombinant LILRB1 [1] = target: T1, recombinant LILRB1 (Homo sapiens, UniProt Q8NHL6); assay: BLI + ELISA
recombinant LILRB1 [2] = target: T1, recombinant LILRB1; assay: ELISA
recombinant LILRB1 [3] = target: T1, recombinant LILRB1; assay: BLI

T1 sequence (Q8NHL6 24-461): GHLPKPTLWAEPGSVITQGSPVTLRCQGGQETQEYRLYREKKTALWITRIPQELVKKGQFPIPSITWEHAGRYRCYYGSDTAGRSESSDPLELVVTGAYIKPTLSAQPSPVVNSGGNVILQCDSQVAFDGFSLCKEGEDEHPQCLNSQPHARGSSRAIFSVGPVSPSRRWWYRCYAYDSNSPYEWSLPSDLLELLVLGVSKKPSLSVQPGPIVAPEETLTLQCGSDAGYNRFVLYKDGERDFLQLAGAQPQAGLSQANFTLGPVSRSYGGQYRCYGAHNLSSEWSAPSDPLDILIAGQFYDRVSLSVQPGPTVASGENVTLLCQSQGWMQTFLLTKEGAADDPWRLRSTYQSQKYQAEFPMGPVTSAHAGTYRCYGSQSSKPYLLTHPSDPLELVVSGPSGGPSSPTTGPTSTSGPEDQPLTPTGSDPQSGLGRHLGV

Binder	binding result (recombinant LILRB1 [1])	binding result (recombinant LILRB1 [2])	also measured
B1	binds	–	–
B2	–	binds	–
B3	binds	–	–
B4	–	binds	–
B5	–	–	Kd (recombinant LILRB1 [3]): ~0.01 nM
